# Publication PMC5099578, “A structural and functional study on the 2-C-methyl-D-erythritol-4-phosphate cytidyltransferase (IspD) from Bacillus subtilis” (Scientific Reports, 2016)
# Tests used:
# Assay in all cases: purified protein
# purified protein [1] = substrate: Nc1ccn([C@@H]2O[C@H](COP(=O)(O)OP(=O)(O)OP(=O)(O)O)[C@@H](O)[C@H]2O)c(=O)n1; assay type: biochemical, Bacillus subtilis; settings: MEP co-substrate, 1 mM MgCl2, 0.1 M Tris-HCl pH 8.0, 1 mM DTT, 30 °C, CTP varied 10-500 μM, paper inconsistent: text gives 124.8 for CTP, Table 2 prints it under MEP
# purified protein [2] = substrate: C[C@](O)(CO)[C@H](O)COP(=O)(O)O; assay type: biochemical, Bacillus subtilis; settings: CTP co-substrate, 1 mM MgCl2, 0.1 M Tris-HCl pH 8.0, 1 mM DTT, 30 °C, MEP varied 10-400 μM, paper inconsistent: text gives 132.8 for MEP, Table 2 prints it under CTP
# purified protein [3] = substrate: Nc1ccn([C@@H]2O[C@H](COP(=O)(O)OP(=O)(O)OP(=O)(O)O)[C@@H](O)[C@H]2O)c(=O)n1; settings: MEP co-substrate, 1 mM MgCl2, 0.1 M Tris-HCl pH 8.0, 1 mM DTT, 30 °C, CTP varied 10-500 μM, paper inconsistent: text gives 291.5 for CTP (kcat 2307.7), Table 2 prints it under MEP (kcat 2307.2)
Protein,Km (purified protein [1]) [µM],kcat (purified protein [1]) [s⁻¹],kcat/Km (purified protein [1]) [M⁻¹ s⁻¹],Km (purified protein [2]) [µM],kcat (purified protein [2]) [s⁻¹],kcat/Km (purified protein [2]) [M⁻¹ s⁻¹],Km (purified protein [3]) [µM],kcat (purified protein [3]) [s⁻¹],kcat/Km (purified protein [3]) [M⁻¹ s⁻¹]
"BsIspD (Bacillus subtilis subsp. subtilis str. 168) (protein, full length (699 bp gene, 232 residues built); pGEX-6P-1, expressed in E. coli, GST tag cut with PreScission protease; homodimer) MSYDVVIPAAGQGKRMKAGRNKLFIELKGDPVIIHTLRVFDSHRQCDKIILVINEQEREHFQQLLSDYPFQTSIELVAGGDERQHSVYKGLKAVKQEKIVLVHDGARPFIKHEQIDELIAEAEQTGAAILAVPVKDTIKRVQDLQVSETIERSSLWAVQTPQAFRLSLLMKAHAEAERKGFLGTDDASLVEQMEGGSVRVVEGSYTNIKLTTPDDLTSAEAIMESESGNKHV",124.8 ± 19,36.3,291000,132.8 ± 29,71.2,536000,,,
"EcIspD (Escherichia coli K-12) (protein, pET22b, C-terminal His6 tag removed with thrombin; expressed in E. coli BL21 (DE3)) ATTHLDVCAVVPAAGFGRRMQTECPKQYLSIGNQTILEHSVHALLAHPRVKRVVIAISPGDSRFAQLPLANHPQITVVDGGDERADSVLAGLKAAGDAQWVLVHDAARPCLHQDDLARLLALSETSRTGGILAAPVRDTMKRAEPGKNAIAHTVDRNGLWHALTPQFFPRELLHDCLTRALNEGATITDEASALEYCGFHPQLVEGRADNIKVTRPEDLALAEFYLTRTIHQENT",,,,,,,291.5 ± 44,38.5,132000
